According to publication PMC12222023 (Nature, 2024):
Residue numbers refer to the chain shown, from its start.

T1: His-tagged SIRT1(E230K), bacterially expressed (human, UniProt Q96EB6 1-747, E230K)
T1 sequence (looked up): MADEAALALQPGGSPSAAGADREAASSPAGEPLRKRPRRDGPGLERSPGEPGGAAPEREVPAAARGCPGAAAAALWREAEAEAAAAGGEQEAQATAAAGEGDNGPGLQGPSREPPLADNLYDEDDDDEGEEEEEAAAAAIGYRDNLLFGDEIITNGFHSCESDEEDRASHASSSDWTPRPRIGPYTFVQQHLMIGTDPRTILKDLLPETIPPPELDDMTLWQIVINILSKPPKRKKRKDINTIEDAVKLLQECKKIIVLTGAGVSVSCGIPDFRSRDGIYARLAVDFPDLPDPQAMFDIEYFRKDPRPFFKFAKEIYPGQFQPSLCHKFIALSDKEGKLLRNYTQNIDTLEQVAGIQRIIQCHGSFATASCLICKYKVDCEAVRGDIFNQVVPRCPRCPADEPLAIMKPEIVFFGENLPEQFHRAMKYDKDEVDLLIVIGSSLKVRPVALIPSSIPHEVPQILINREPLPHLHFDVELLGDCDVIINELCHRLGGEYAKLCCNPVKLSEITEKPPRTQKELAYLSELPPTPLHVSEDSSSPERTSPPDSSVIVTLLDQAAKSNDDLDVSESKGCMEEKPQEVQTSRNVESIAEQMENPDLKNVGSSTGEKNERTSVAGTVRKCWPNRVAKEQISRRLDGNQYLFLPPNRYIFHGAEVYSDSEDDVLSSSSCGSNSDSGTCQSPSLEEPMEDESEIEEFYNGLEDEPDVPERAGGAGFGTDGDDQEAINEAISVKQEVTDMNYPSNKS

T2: His-tagged SIRT1, bacterially expressed (human, UniProt Q96EB6 1-747)
T2 sequence (looked up): T1 sequence (looked up) with K230E

B1: His-tagged TULP3, bacterially expressed (natural protein, human, UniProt O75386 1-442, looked up)
chain: MEASRCRLSPSGDSVFHEEMMKMRQAKLDYQRLLLEKRQRKKRLEPFMVQPNPEARLRRAKPRASDEQTPLVNCHTPHSNVILHGIDGPAAVLKPDEVHAPSVSSSVVEEDAENTVDTASKPGLQERLQKHDISESVNFDEETDGISQSACLERPNSASSQNSTDTGTSGSATAAQPADNLLGDIDDLEDFVYSPAPQGVTVRCRIIRDKRGMDRGLFPTYYMYLEKEENQKIFLLAARKRKKSKTANYLISIDPVDLSREGESYVGKLRSNLMGTKFTVYDRGICPMKGRGLVGAAHTRQELAAISYETNVLGFKGPRKMSVIIPGMTLNHKQIPYQPQNNHDSLLSRWQNRTMENLVELHNKAPVWNSDTQSYVLNFRGRVTQASVKNFQIVHKNDPDYIVMQFGRVADDVFTLDYNYPLCAVQAFGIGLSSFDSKLACE
B2: His-tagged TULP3(4G), bacterially expressed (natural protein, human, UniProt O75386 1-442, looked up)
chain: B1 chain with Y193G, P195G, K333G, P336G

Experiments:
[1] = biological target: T1, His-tagged SIRT1(E230K), bacterially …; test: SEC
[2] = biological target: T2, His-tagged SIRT1, bacterially expressed; test: SEC

| Binder | binding result [1] | binding result [2] |
| --- | --- | --- |
| B1 | binds |  |
| B2 |  | binds |
